In paper PMC3617236:

Experiments:
[1] = target: recombinant His-tagged Wolbachia surface protein wBm0152 (Wolbachia endosymbiont of B. malayi (wBm)); experiment: ELISA
[2] = target: recombinant His-tagged B. malayi fructose-bisphosphate aldolase (B. malayi); experiment: far-Western, overlay or dot blot; His-Bm-aldolase (3 µg per lane) run on SDS-PAGE and blotted on nitrocellulose; strips incubated with 1, 2, 5 or 10 µg/ml His-wBm0432 in overlay buffer, 3 h, room temperature; signals quantified with GeneSnap

Row | Substance | Kd [1] [nM] | Kd [2] [nM]
1 | purified bovine actin (from UniProt P68138 1-377) (natural protein) | 570 | –
2 | recombinant His-tagged Wolbachia surface protein wBm0432 (natural protein) | – | 510
